Here are results for 1 substance from publication PMC6642547.

This experiment addresses human GITR-Fc (human) (UniProt Q9Y5U5). Put plainly: not stated; binding to and dissociation from the GITR-Fc receptors measured in real time, equilibrium binding constants (KD) calculated; instrument and who was immobilised not told in what was shown.

Sequence of human GITR-Fc (human) (Q9Y5U5 26-162): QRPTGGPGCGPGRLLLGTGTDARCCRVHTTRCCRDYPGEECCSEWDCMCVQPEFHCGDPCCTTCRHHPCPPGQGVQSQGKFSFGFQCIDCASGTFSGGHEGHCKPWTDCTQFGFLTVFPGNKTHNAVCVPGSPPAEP

In general, Kd refers to the free concentration of one partner at which half of the binding sites on the other are occupied at equilibrium, for simple one-to-one binding. As to “HERA-GITRL (hexavalent TNF receptor agonist; single-chain GITRL-receptor-binding-domain fused to a silenced human IgG1 Fc) (from UniProt Q9UNG2 56-177; Q9UNG2 56-177; Q9UNG2 56-177) (Fc fusion)”, the Kd was 0.366 nM.
